Experiment [1] deals with T1, human plasma fibronectin (human, UniProt P02751-8 32-2296, limits assumed). In words: cell-based or functional assay.
Experiment [2] concerns the target T1, human plasma fibronectin. Kind of experiment: competition ELISA, peptide 6 titrated 0-160 µM against FN binding to immobilized CD9. The method, then: FIG. 2C illustrates the effect of titrations of Peptide 6 (0-160 μM) on FN-CD9 binding was evaluated. […] The ability of CD9-CHO-B2 cells to adhere to FN was compared with Mock-CHOB2 cells. CD9-CHO-B2 cells had increased adhesion to FN in the absence of integrin α5β1 expression when compared to Mock-CHO-B2 cells. […] A scrambled control (peptide 6S) had no significant effect on CD9-CHO-B2 cell adhesion (p>0.005).
All incubation periods for the CD9/FN binding ELISA lasted two hours at RT unless otherwise indicated. Immulon I (Dynatech) microtiter plate wells were coated with CD9 (2 μg/ml), His₆-rCD9 (2 μg/ml), BSA (10 μg/ml), or peptide (10 μM) in Buffer A. After one wash with Buffer B, plates were blocked with Blocking Buffer 1.1% BSA was included in steps from ligand overlay to addition of mAb conjugate to minimize non-specific binding. Titrations of human plasma FN in Buffer B were added to plates either alone, or in the case of competition ELISAs, with 0-160 μM synthetic peptide. Plates were washed three times with ELISA Buffer B, followed by incubation with a 1/1000 dilution of rabbit anti-FN antibody. After two washes with Buffer B and one wash with Buffer C, plates were incubated with 1/500 antirabbit IgG alkaline phosphatase in Buffer C for one hour at RT. After four washes with Buffer C, 1 mg/mlp-nitrophenyl phosphate substrate was added and the absorbance at 405 nm was recorded.

T1 sequence (P02751 other isoform, or with tags, fused parts or gaps limits assumed): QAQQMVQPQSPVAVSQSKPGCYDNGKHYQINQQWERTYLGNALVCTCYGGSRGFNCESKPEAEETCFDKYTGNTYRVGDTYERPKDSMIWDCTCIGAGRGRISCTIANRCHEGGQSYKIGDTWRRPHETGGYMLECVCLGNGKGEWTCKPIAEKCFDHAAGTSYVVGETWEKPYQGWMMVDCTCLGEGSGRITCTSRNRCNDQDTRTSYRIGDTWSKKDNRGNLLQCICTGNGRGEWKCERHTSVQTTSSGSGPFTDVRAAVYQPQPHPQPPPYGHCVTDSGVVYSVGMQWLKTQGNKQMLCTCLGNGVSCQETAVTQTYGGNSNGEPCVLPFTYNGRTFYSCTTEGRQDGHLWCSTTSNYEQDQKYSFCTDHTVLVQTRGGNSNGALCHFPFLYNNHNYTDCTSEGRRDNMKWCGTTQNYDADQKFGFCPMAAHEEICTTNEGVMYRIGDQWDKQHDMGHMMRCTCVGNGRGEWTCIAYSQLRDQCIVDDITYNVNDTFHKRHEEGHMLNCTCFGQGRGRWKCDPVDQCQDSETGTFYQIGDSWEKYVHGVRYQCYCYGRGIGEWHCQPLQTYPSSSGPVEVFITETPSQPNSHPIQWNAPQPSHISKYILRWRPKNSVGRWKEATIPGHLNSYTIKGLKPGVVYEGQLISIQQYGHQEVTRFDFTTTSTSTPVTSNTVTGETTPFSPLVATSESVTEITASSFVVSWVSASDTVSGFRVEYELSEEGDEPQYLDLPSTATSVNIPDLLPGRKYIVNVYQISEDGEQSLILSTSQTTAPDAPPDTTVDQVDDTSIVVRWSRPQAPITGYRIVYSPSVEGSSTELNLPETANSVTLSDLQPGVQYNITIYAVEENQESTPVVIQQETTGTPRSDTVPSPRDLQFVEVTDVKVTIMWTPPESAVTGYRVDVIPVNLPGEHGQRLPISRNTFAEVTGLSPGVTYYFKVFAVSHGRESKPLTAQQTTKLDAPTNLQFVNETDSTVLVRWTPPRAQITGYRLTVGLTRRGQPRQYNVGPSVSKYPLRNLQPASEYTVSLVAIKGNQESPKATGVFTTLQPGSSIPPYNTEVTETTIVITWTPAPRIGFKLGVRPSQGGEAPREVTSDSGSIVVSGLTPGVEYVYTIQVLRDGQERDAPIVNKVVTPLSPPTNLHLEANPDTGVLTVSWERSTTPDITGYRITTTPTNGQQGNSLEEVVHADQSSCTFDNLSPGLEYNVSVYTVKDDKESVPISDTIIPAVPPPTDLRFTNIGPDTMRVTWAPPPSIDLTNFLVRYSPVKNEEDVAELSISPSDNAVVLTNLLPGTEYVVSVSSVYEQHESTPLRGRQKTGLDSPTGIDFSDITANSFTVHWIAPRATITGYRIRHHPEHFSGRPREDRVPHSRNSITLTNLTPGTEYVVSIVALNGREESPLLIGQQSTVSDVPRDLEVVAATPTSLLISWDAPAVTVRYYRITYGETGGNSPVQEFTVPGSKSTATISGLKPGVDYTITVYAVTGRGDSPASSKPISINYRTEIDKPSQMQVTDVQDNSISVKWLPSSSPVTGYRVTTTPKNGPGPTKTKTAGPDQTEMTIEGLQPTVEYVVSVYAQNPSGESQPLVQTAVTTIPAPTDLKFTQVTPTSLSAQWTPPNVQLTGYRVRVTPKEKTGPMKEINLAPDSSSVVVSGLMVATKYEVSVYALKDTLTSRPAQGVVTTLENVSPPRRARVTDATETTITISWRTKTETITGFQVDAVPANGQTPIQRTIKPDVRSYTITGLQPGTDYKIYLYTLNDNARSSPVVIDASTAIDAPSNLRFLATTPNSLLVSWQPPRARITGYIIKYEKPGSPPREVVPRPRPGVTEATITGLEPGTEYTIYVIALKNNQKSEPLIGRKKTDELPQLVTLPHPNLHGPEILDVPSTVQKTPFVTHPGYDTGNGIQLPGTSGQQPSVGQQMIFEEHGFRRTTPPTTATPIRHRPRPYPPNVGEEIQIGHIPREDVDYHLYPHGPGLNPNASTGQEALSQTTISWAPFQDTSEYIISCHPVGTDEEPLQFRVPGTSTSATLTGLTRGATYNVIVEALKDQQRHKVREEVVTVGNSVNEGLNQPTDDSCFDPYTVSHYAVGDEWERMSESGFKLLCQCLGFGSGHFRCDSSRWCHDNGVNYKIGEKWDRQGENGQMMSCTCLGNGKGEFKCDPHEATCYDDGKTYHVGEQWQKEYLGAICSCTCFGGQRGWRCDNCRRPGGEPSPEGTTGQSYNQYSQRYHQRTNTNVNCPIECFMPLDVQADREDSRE

B1: CD9 Δ113-228 (receptor)
chain: MPVKGGTKCIKYLLFGFNFIFWLAGIAVLAIGLWLRFDSQTKSIFEQETNNNNSSFYTGVYILIGAGALMMLVGFLGCCGAVQESQCMLGLFFGFLLVIFAIEIAAAIWGYS
For the molecule B1, the “reduction in haptotactic motility to FN” value in the experiment with human plasma fibronectin [1] came out at 58%.

B2: CD9 Δ173-192 (receptor)
chain: MPVKGGTKCIKYLLFGFNFIFWLAGIAVLAIGLWLRFDSQTKSIFEQETNNNNSSFYTGVYILIGAGALMMLVGFLGCCGAVQESQCMLGLFFGFLLVIFAIEIAAAIWGYSHKDEVIKEVQEFYKDTYNKLKTKDEPQRETLKAIHYALNCCGLAGGVEQFISDICPKKDVFHIIGAVGIGIAVVMIFGMIFSMILCCAIRRNREMV
B2: the “reduction in haptotactic motility to FN” value with human plasma fibronectin [1] worked out at 45%.

B3: CD9 Δ133-192 (receptor)
chain: MPVKGGTKCIKYLLFGFNFIFWLAGIAVLAIGLWLRFDSQTKSIFEQETNNNNSSFYTGVYILIGAGALMMLVGFLGCCGAVQESQCMLGLFFGFLLVIFAIEIAAAIWGYSHKDEVIKEVQEFYKDTYNKLFHIIGAVGIGIAVVMIFGMIFSMILCCAIRRNREMV
Turning to B3, in the experiment with human plasma fibronectin [1], the “reduction in haptotactic motility to FN” value amounted to 64%.

As to PKKDVLETFTVKSCPDAIKEVFDNK (Synthetic peptide of CD9 EC2) [peptide 6], in the experiment with human plasma fibronectin [2], the “IC50 (read off the curve)” value is ~20 µM.

Source of the values: patent publication US20040136985A1 (published 2004).
